The target in one assay is human CGRP receptor (human, UniProt Q16602 23-461; O60894 27-148). As to the kind of experiment: cell-based or functional assay.
The target of the next assay is T1, human PAC1 receptor (human, UniProt P41586 24-468).
T1 sequence: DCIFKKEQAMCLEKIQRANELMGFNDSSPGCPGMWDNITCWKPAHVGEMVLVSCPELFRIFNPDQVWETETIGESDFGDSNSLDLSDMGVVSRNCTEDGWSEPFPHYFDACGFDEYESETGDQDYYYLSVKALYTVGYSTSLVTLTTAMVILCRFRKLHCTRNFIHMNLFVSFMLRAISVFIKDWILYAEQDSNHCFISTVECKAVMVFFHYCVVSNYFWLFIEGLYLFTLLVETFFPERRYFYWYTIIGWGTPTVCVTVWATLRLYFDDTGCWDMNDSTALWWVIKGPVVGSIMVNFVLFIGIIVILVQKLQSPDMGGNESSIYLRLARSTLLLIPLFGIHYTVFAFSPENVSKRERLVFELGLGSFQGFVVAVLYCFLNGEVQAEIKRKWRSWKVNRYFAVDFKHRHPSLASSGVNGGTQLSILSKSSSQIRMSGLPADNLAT
Nature of the assay: cell-based or functional assay.

As a reminder, the IC50 is the concentration at which inhibition is half-maximal. Higher therefore signals weaker potency in that assay.

Sequence of human CGRP receptor (Q16602 23-461 limits assumed, chain 1 of 2): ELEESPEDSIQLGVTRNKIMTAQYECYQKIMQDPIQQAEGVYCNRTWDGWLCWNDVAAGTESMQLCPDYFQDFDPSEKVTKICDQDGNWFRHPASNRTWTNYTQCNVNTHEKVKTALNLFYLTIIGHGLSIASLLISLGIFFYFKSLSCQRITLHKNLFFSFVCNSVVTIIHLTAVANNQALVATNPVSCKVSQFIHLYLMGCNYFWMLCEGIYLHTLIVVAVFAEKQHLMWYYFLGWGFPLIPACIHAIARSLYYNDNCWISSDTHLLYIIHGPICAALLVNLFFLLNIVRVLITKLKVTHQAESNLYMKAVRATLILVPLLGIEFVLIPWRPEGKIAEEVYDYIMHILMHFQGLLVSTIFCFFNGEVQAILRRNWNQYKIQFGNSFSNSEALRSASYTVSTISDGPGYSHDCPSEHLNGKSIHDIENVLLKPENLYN
Sequence of human CGRP receptor (O60894 27-148 limits assumed, chain 2 of 2): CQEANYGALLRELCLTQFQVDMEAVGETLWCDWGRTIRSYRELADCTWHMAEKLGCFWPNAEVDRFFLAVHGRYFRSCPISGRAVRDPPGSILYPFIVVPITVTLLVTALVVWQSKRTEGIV

B1: iPS:454879 (bispecific antibody, human IgG1, kappa, lambda, N297G)
light 1: QSVLTQPPSVSAAPGQKVTISCSGSSSNIGNNYVSWYQQLPGTAPKLLIYDNNKRPSGIPDRFSGSKSGTSTTLGITGLQTGDEADYYCGTWDSRLSAVVFGGGTKLTVLGQPKAAPSVTLFPPSSEELQANKATLVCLISDFYPGAVTVAWKADSSPVKAGVETTTPSKQSNNKYAAKSYLSLTPEQWKSHRSYSCQVTHEGSTVEKTVAPTECS
heavy 1: QVQLVESGGGVVQPGRSLRLSCAASGFTFSSFGMHWVRQAPGKGLEWVAVISFDGSIKYSVDSVKGRFTISRDNSKNTLFLQMNSLRAEDTAVYYCARDRLNYYRSFGYYGYHYYGMAVWGQGTTVTVSSASTKGPSVFPLAPSSKSTSGGTAALGCLVKDYFPEPVTVSWNSGALTSGVHTFPAVLQSSGLYSLESVVTVPSSSLGTQTYICNVNHKPSNTKVDKKVEPKSCDKTHTCPPCPAPELLGGPSVFLFPPKPKDTLMISRTPEVTCVVVDVSHEDPEVKFNWYVDGVEVHNAKTKPCEEQYGSTYRCVSVLTVLHQDWLNGKEYKCKVSNKALPAPIEKTISKAKGQPREPQVYTLPPSRKKMTKNQVSLTCLVKGFYPSDIAVEWESNGQPENNYKTTPPVLKSDGSFFLYSKLTVDKSRWQQGNVFSCSVMHEALHNHYTQKSLSLSPGK
light 2: EIVLTQSPATLSLSPGERATLSCRASKSVGRSLHWYQQKPGQAPRLLIKYASQSLSGIPARFSGSGSGTDFTLTISSLEPEDFAVYYCHQSSRLPFTFGPGTKVDIKRTVAAPSVFIFPPSDEQLKSGTASVVCLLNNFYPREAKVQWKVDNALQSGNSQESVTEQDSKDSTYSLESTLTLSKADYEKHKVYACEVTHQGLSSPVTKSFNRGEC
heavy 2: not shown
For the molecule B1, in the assay with human CGRP receptor, the “Fold-improvement over 4E4 Ab” value came out at 0.3 fold and half-maximal inhibition (IC50) was put at 1.37 nM. Moreover, in the assay with human PAC1 receptor, the “Fold-improvement over 29G4v22 Ab” value was 6.7 fold and the “IC50” value was determined as 0.86 nM.

B2: iPS:454881 (bispecific antibody, human IgG1, kappa, lambda, N297G)
light 1: QSVLTQPPSVSAAPGQKVTISCSGSSSNIGNNYVSWYQQLPGTAPKLLIYDNNKRPSGIPDRFSGSKSGTSTTLGITGLQTGDEADYYCGTWDSRLSAVVFGGGTKLTVLGQPKAAPSVTLFPPSSEELQANKATLVCLISDFYPGAVTVAWKADSSPVKAGVETTTPSKQSNNKYAAKSYLSLTPEQWKSHRSYSCQVTHEGSTVEKTVAPTECS
heavy 1: QVQLVESGGGVVQPGRSLRLSCAASGFTFSSFGMHWVRQAPGKGLEWVAVISFDGSIKYSVDSVKGRFTISRDNSKNTLFLQMNSLRAEDTAVYYCARDRLNYYRSFGYYGYHYYGMAVWGQGTTVTVSSASTKGPSVFPLAPSSKSTSGGTAALGCLVKDYFPEPVTVSWNSGALTSGVHTFPAVLQSSGLYSLESVVTVPSSSLGTQTYICNVNHKPSNTKVDKKVEPKSCDKTHTCPPCPAPELLGGPSVFLFPPKPKDTLMISRTPEVTCVVVDVSHEDPEVKFNWYVDGVEVHNAKTKPCEEQYGSTYRCVSVLTVLHQDWLNGKEYKCKVSNKALPAPIEKTISKAKGQPREPQVYTLPPSRKKMTKNQVSLTCLVKGFYPSDIAVEWESNGQPENNYKTTPPVLKSDGSFFLYSKLTVDKSRWQQGNVFSCSVMHEALHNHYTQKSLSLSPGK
light 2: EIVLTQSPATLSLSPGERATLSCRASKSVGRSLHWYQQKPGQAPRLLIKYASQSLSGIPARFSGSGSGTDFTLTISSLEPEDFAVYYCHQSSRLPFTFGPGTKVDIKRTVAAPSVFIFPPSDEQLKSGTASVVCLLNNFYPREAKVQWKVDNALQSGNSQESVTEQDSKDSTYSLESTLTLSKADYEKHKVYACEVTHQGLSSPVTKSFNRGEC
heavy 2: not shown
Consider B2, for which, in the assay with human CGRP receptor, the “Fold-improvement over 4E4 Ab” value came to 0.5 fold and the “IC50” value was 0.93 nM. In addition, in the assay with human PAC1 receptor, the “Fold-improvement over 29G4v22 Ab” value came to 10.9 fold and the half-maximal inhibitory concentration (IC50) is 0.53 nM.

B3: iPS:454885 (bispecific antibody, human IgG1, kappa, lambda, N297G)
light 1: QSVLTQPPSVSAAPGQKVTISCSGSSSNIGNNYVSWYQQLPGTAPKLLIYDNNKRPSGIPDRFSGSKSGTSTTLGITGLQTGDEADYYCGTWDSRLSAVVFGGGTKLTVLGQPKAAPSVTLFPPSSEELQANKATLVCLISDFYPGAVTVAWKADSSPVKAGVETTTPSKQSNNKYAAKSYLSLTPEQWKSHRSYSCQVTHEGSTVEKTVAPTECS
heavy 1: QVQLVESGGGVVQPGRSLRLSCAASGFTFSSFGMHWVRQAPGKGLEWVAVISFDGSIKYSVDSVKGRFTISRDNSKNTLFLQMNSLRAEDTAVYYCARDRLNYYRSFGYYGYHYYGMAVWGQGTTVTVSSASTKGPSVFPLAPSSKSTSGGTAALGCLVKDYFPEPVTVSWNSGALTSGVHTFPAVLQSSGLYSLESVVTVPSSSLGTQTYICNVNHKPSNTKVDKKVEPKSCDKTHTCPPCPAPELLGGPSVFLFPPKPKDTLMISRTPEVTCVVVDVSHEDPEVKFNWYVDGVEVHNAKTKPCEEQYGSTYRCVSVLTVLHQDWLNGKEYKCKVSNKALPAPIEKTISKAKGQPREPQVYTLPPSRKKMTKNQVSLTCLVKGFYPSDIAVEWESNGQPENNYKTTPPVLKSDGSFFLYSKLTVDKSRWQQGNVFSCSVMHEALHNHYTQKSLSLSPGK
light 2: EIVLTQSPATLSLSPGERATLSCRASKSVGRSLHWYQQKPGQAPRLLIKYASQSLSGIPARFSGSGSGTDFTLTISSLEPEDFAVYYCHQSSRLPFTFGPGTKVDIKRTVAAPSVFIFPPSDEQLKSGTASVVCLLNNFYPREAKVQWKVDNALQSGNSQESVTEQDSKDSTYSLESTLTLSKADYEKHKVYACEVTHQGLSSPVTKSFNRGEC
heavy 2: not shown
In the case of B3, in the assay with human CGRP receptor, the “Fold-improvement over 4E4 Ab” value was 0.5 fold and the “IC50” value stood at 1.16 nM. In the assay with human PAC1 receptor, the “Fold-improvement over 29G4v22 Ab” value was 10.5 fold and the midpoint of inhibition, the IC50, lay at 0.61 nM.

B4: iPS:454883 (bispecific antibody, human IgG1, kappa, lambda, N297G)
light 1: QSVLTQPPSVSAAPGQKVTISCSGSSSNIGNNYVSWYQQLPGTAPKLLIYDNNKRPSGIPDRFSGSKSGTSTTLGITGLQTGDEADYYCGTWDSRLSAVVFGGGTKLTVLGQPKAAPSVTLFPPSSEELQANKATLVCLISDFYPGAVTVAWKADSSPVKAGVETTTPSKQSNNKYAAKSYLSLTPEQWKSHRSYSCQVTHEGSTVEKTVAPTECS
heavy 1: QVQLVESGGGVVQPGRSLRLSCAASGFTFSSFGMHWVRQAPGKGLEWVAVISFDGSIKYSVDSVKGRFTISRDNSKNTLFLQMNSLRAEDTAVYYCARDRLNYYRSFGYYGYHYYGMAVWGQGTTVTVSSASTKGPSVFPLAPSSKSTSGGTAALGCLVKDYFPEPVTVSWNSGALTSGVHTFPAVLQSSGLYSLESVVTVPSSSLGTQTYICNVNHKPSNTKVDKKVEPKSCDKTHTCPPCPAPELLGGPSVFLFPPKPKDTLMISRTPEVTCVVVDVSHEDPEVKFNWYVDGVEVHNAKTKPCEEQYGSTYRCVSVLTVLHQDWLNGKEYKCKVSNKALPAPIEKTISKAKGQPREPQVYTLPPSRKKMTKNQVSLTCLVKGFYPSDIAVEWESNGQPENNYKTTPPVLKSDGSFFLYSKLTVDKSRWQQGNVFSCSVMHEALHNHYTQKSLSLSPGK
light 2: EIVLTQSPATLSLSPGERATLSCRASKSVGRSLHWYQQKPGQAPRLLIKYASQSLSGIPARFSGSGSGTDFTLTISSLEPEDFAVYYCHQSSRLPFTFGPGTKVDIKRTVAAPSVFIFPPSDEQLKSGTASVVCLLNNFYPREAKVQWKVDNALQSGNSQESVTEQDSKDSTYSLESTLTLSKADYEKHKVYACEVTHQGLSSPVTKSFNRGEC
heavy 2: not shown
For B4, in the assay with human CGRP receptor, the “Fold-improvement over 4E4 Ab” value stood at 0.5 fold and the “IC50” value turned out to be 1.03 nM. For the same molecule, in the assay with human PAC1 receptor, the “Fold-improvement over 29G4v22 Ab” value turned out to be 9 fold and the “IC50” value came out at 0.64 nM.

B5: iPS:454887 (bispecific antibody, human IgG1, kappa, lambda, N297G)
light 1: QSVLTQPPSVSAAPGQKVTISCSGSSSNIGNNYVSWYQQLPGTAPKLLIYDNNKRPSGIPDRFSGSKSGTSTTLGITGLQTGDEADYYCGTWDSRLSAVVFGGGTKLTVLGQPKAAPSVTLFPPSSEELQANKATLVCLISDFYPGAVTVAWKADSSPVKAGVETTTPSKQSNNKYAAKSYLSLTPEQWKSHRSYSCQVTHEGSTVEKTVAPTECS
heavy 1: QVQLVESGGGVVQPGRSLRLSCAASGFTFSSFGMHWVRQAPGKGLEWVAVISFDGSIKYSVDSVKGRFTISRDNSKNTLFLQMNSLRAEDTAVYYCARDRLNYYRSFGYYGYHYYGMAVWGQGTTVTVSSASTKGPSVFPLAPSSKSTSGGTAALGCLVKDYFPEPVTVSWNSGALTSGVHTFPAVLQSSGLYSLESVVTVPSSSLGTQTYICNVNHKPSNTKVDKKVEPKSCDKTHTCPPCPAPELLGGPSVFLFPPKPKDTLMISRTPEVTCVVVDVSHEDPEVKFNWYVDGVEVHNAKTKPCEEQYGSTYRCVSVLTVLHQDWLNGKEYKCKVSNKALPAPIEKTISKAKGQPREPQVYTLPPSRKKMTKNQVSLTCLVKGFYPSDIAVEWESNGQPENNYKTTPPVLKSDGSFFLYSKLTVDKSRWQQGNVFSCSVMHEALHNHYTQKSLSLSPGK
light 2: EIVLTQSPATLSLSPGERATLSCRASKSVGRSLHWYQQKPGQAPRLLIKYASQSLSGIPARFSGSGSGTDFTLTISSLEPEDFAVYYCHQSSRLPFTFGPGTKVDIKRTVAAPSVFIFPPSDEQLKSGTASVVCLLNNFYPREAKVQWKVDNALQSGNSQESVTEQDSKDSTYSLESTLTLSKADYEKHKVYACEVTHQGLSSPVTKSFNRGEC
heavy 2: not shown
B5: in the assay with human CGRP receptor, the “Fold-improvement over 4E4 Ab” value turned out to be 0.3 fold and the “IC50” value was 1.86 nM. In the assay with human PAC1 receptor, the “Fold-improvement over 29G4v22 Ab” value turned out to be 9.3 fold and the “IC50” value was determined as 0.69 nM.
